Laboratory results from patent US7989588B2, “Cell permeable peptide” (Osaka University, priority 2005, dated 2011).

Test system: A431 cells
Assay: Evaluation of intracellular transfer ability of peptide (cytotoxicity test by PSIF; MTT assay)
Assay type: cell-based, human
Conditions: 5 μL culture supernatant containing fusion body of peptide and PSIF, cycloheximide 10 μg/mL, 24 hours, viability of TAT peptide (Tat 48-60)-PSIF group taken as 100%
Protocol: Subsequently, using a fusion body of the peptide and PSIF (protein synthesis inhibitory factor) obtained by recombining each library gene in a PSIF-expressing vector, the intracellular transfer activity of the peptide was evaluated using the cytotoxicity by PSIF as an indicator. […] The screening was performed using a supernatant of the culture of Escherichia coli producing the fusion body of the peptide and PSIF. As a result, it can be confirmed that the clone having the ability to penetrate into the cell is selectively enriched as the panning is repeated. It was successful to yield many clones having a higher introduction efficiency than TAT peptide currently described to be the most excellent in introduction efficiency.
The plasmids collected from the library (input) made and the libraries after the 2nd, 3rd and 4th panning were treated with NcoI (Toyobo Co., Ltd.) and NotI. A plasmid expressing the fusion body of the peptide and PSIF was constructed by incorporating the treated plasmid into PSIF expression vector pY7 (PSIF expression codons had been incorporated into pCantab5e) previously treated with NcoI and NotI using a ligation kit (Takara Shuzo Co., Ltd.). […]; A04646) or Pseudomonas microbial cell exotoxin (GenBank; K01397) (FIG. 6) was utilized.
The plasmid expressing the fusion body of the peptide and PSIF was introduced into TG1 by electroporation, and resulting colonies were randomly picked up into a 96-well plate (NUNC™) and cultured overnight. To a plate in which 100 μL of the 2YT medium containing 50 μg/mL of ampicillin and 2% glucose was newly added, 10 μL of the culture medium cultured overnight was added and cultured until OD600=0.4 to 0.5. The culture was centrifuged at 3,000 rpm for 20 minutes, the supernatant was removed, and 200 μL of the 2YT medium containing 1 mM IPTG (Sigma Aldrich Inc.) and 50 μg/mL of ampicillin was added to the plate, which was then cultured at 37° C. for 12 hours. The culture was centrifuged again at 3,000 rpm for 20 minutes, and the resulting supernatant was subjected to the following screening.
A431 cells diluted at 1.0×10^4 cells/well with Opti-MEM (Invitrogen™ life technologies) were seeded in a 96-well plate, and cycloheximide (Wako Pure Chemical Industries Ltd.) at a final concentration of 10 μg/mL was added thereto. Then, 5 μL of the culture supernatant made according to the above method was added, and the cells were cultured at 37° C. under the saturated vapor pressure and 5% carbon dioxide gas phase for 24 hours. Subsequently, 10 μL/well of 5 mg/mL of MTT (Wako Pure Chemical Industries Ltd.) solution was added, and further cultured at 37° C. for 4 hours. Then, 100 μL/well of 20% SDS (Wako Pure Chemical Industries Ltd., Osaka, Japan)/0.01 N HCl was added and the plate was left stand in a dark place for 4 hours. The intracellular transfer ability of the peptide was evaluated using the cytotoxicity by PSIF introduced into the cells by the peptide as the indicator by measuring absorbance using a microplate reader (Test wave length: 595 nm/Reference wave length: 655 nm). Viability was calculated by making the viability in the group treated with the culture supernatant containing the fusion body of the TAT peptide (Tat 48-60) and PSIF 100%.

Row | Sequence | Viability
1 | GSNFFYQHRLPFS [SEQ ID NO 1, cell permeable peptide, tested as fusion body with PSIF] | about 45%
2 | GRKKRRQRRRPPQ [SEQ ID NO 17, TAT peptide (Tat 48-60) derived from HIV Tat protein, reference compound] | 100%
3 | GLFNWLQLRPPSW [SEQ ID NO 2, cell permeable peptide, tested as fusion body with PSIF] | about 80%
4 | SPGNQSTGVIGTPSFSNH [SEQ ID NO 11, cell permeable peptide, tested as fusion body with PSIF] | about 45%
5 | MSDPNMNPGTLGSSHILW [SEQ ID NO 10, cell permeable peptide, tested as fusion body with PSIF] | about 30%
6 | SGEHTNGPSKTSVRWVWD [SEQ ID NO 6, cell permeable peptide, tested as fusion body with PSIF] | about 35%
7 | YSSAYEWFNRYKQPYYEL [SEQ ID NO 14, cell permeable peptide, tested as fusion body with PSIF] | about 65%
8 | GTSRANSYDNLKSETLTQ [SEQ ID NO 16, cell permeable peptide, tested as fusion body with PSIF] | about 15%
9 | SSGANYFFNAIYDFLSNF [SEQ ID NO 15, cell permeable peptide, tested as fusion body with PSIF] | about 35%
10 | STHLQYHVNYTSRTVVSM [SEQ ID NO 8, cell permeable peptide, tested as fusion body with PSIF] | about 60%
11 | STAPGSLQEDILDSVPA [SEQ ID NO 12, cell permeable peptide, tested as fusion body with PSIF] | about 85%
12 | RRRRNRTRRNRRRVR [SEQ ID NO 4, cell permeable peptide, tested as fusion body with PSIF] | about 93%
13 | QDGGTWHLVAYCAKSHRY [SEQ ID NO 9, cell permeable peptide, tested as fusion body with PSIF] | about 45%
14 | GILLRNQVLPPQI [SEQ ID NO 3, cell permeable peptide, tested as fusion body with PSIF] | about 65%
15 | GIASNGQLPTPKT [SEQ ID NO 5, cell permeable peptide, tested as fusion body with PSIF] | about 35%
16 | SPTRPTHQGLLPVSNKYT [SEQ ID NO 13, cell permeable peptide, tested as fusion body with PSIF] | about 77%
17 | SMTTMEFGHSMITPYKID [SEQ ID NO 7, cell permeable peptide, tested as fusion body with PSIF] | about 45%
